Molecular target: the molecule itself
Experiment: native MS; detergent-purified NHA2ΔN exchanged into C12E9, ~20 μM, Q-Exactive Orbitrap modified for high m/z

B1: bison NHA2ΔN (SLC9B2 without the first 69 residues), GFP-TwinStrep-His8 tag removed with TEV protease (domain or fragment, Bison bison)
chain: RRRQIHACPPRGLLARVITNVTMVILLWAVVWSVTGSECLPGGNLFGIIMLFYCAIIGGKLFGLIKLPTLPPLPPLLGMLLAGFLIRNVPVISDNIQIKHKWSSALRSIALSVILVRAGLGLDSNALKKLKGVCVRLSLGPCLIEACTSAVLAYFLMGLPWQWGFMLGFVLGAVSPAVVVPSMLLLQEGGYGVEKGIPTLLMAAGSFDDILAITGFNTCLGMAFSTGSTVFNVLKGVLEVIIGVVTGLVLGFFIQYFPSSDQDNLVWKRAFLVLGLSVLAVFSSTYFGFPGSGGLCTLVTAFLAGRGWASTKTDVEKVIAVAWDIFQPLLFGLIGAEVLITALRPETIGLCVATLGIAVLIRILVTYLMVCFAGFNIKEKIFISFAWLPKATVQAAIGSVALDTARSHGEKQLEGYGMDVLTVAFLSIIITAPVGSLLIGLLGPRLLQKAEQNKDEEDQGETSIQV
notes: Na+/H+ exchanger NHA2 (SLC9B2), Bison bison, without the first 69 residues of the N-terminal tail; numbers count on: the full-length bison NHA2 as printed; residues of it stay on the C-terminus after digestion; also called biNHA2ΔN; source: S. cerevisiae FGY217, purified (DDM/CHS, Ni-NTA, TEV digestion, SEC); for nanodiscs reconstituted as GFP fusion with MSP1E2 and yeast PI, then TEV digestion …
- stoichiometry N: 2
